# Results reported in the supplement of paper PMC9233669.
# This sample holds only a part of the variants without activity.
# Assays:
# [1] = system: biotinyl-Ile-oxazolone; test: self-aminoacylation, catalytic enhancement (BIO) (fold over background); higher = more active; k-Seq, kA / k0A0; sequences stand for … in GGGAAUGGAUCCACAUCUACGAAUUC…UUCACUGCAGACUUGACGAAGCUG
# Outline: (§1)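 Each biotinyl-aminoacyl-oxazolone, at 2–1250 μM, was incubated with mutagenized RNA pools (0.43 μM) carrying a 21-nt variable region. The 50 μL reactions contained HEPES/NaCl/KCl/MgCl2/CaCl2 buffer with 5% acetonitrile at pH 6.9–7.0 and ran for 90 minutes at room temperature. After streptavidin capture, RNA was measured by qPCR in triplicate and by Illumina sequencing, and catalytic enhancement was calculated as median kA over the uncatalyzed rate from a pseudo-first-order fit of per-sequence fraction reacted.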
# [2] = system: biotinyl-Trp-oxazolone; test: self-aminoacylation, catalytic enhancement (BWO) (fold over background); higher = more active; k-Seq, kA / k0A0; sequences stand for … in GGGAAUGGAUCCACAUCUACGAAUUC…UUCACUGCAGACUUGACGAAGCUG
# Outline: as §1
# [3] = system: biotinyl-Phe-oxazolone; test: self-aminoacylation, catalytic enhancement (BFO) (fold over background); higher = more active; k-Seq, kA / k0A0; sequences stand for … in GGGAAUGGAUCCACAUCUACGAAUUC…UUCACUGCAGACUUGACGAAGCUG
# Outline: as §1
# [4] = system: biotinyl-Leu-oxazolone; test: self-aminoacylation, catalytic enhancement (BLO) (fold over background); higher = more active; k-Seq, kA / k0A0; sequences stand for … in GGGAAUGGAUCCACAUCUACGAAUUC…UUCACUGCAGACUUGACGAAGCUG
# Outline: as §1
# [5] = system: biotinyl-Met-oxazolone; test: self-aminoacylation, catalytic enhancement (BMO) (fold over background); higher = more active; k-Seq, kA / k0A0; sequences stand for … in GGGAAUGGAUCCACAUCUACGAAUUC…UUCACUGCAGACUUGACGAAGCUG
# Outline: as §1
# [6] = system: biotinyl-Val-oxazolone; test: self-aminoacylation, catalytic enhancement (BVO) (fold over background); higher = more active; k-Seq, kA / k0A0; sequences stand for … in GGGAAUGGAUCCACAUCUACGAAUUC…UUCACUGCAGACUUGACGAAGCUG
# Outline: as §1
sequence,measurement,setting,value
AAAUUUGCUAAGAGUCGCAAG [Fam3.1 aminoacylation ribozyme variant],self-aminoacylation,[1],2.05
same,self-aminoacylation,[2],2.51
same,self-aminoacylation,[3],2.61
AACAUUGCUAAUAGUCGCAAG [Fam3.1 aminoacylation ribozyme variant],self-aminoacylation,[1],2.5
same,self-aminoacylation,[2],2.67
same,self-aminoacylation,[3],2.9
AACUAUGCUAAUAGUCGCAAG [Fam3.1 aminoacylation ribozyme variant],self-aminoacylation,[1],2.41
same,self-aminoacylation,[4],2.16
same,self-aminoacylation,[3],2.45
AACUUUGCUAAUAGUUGCAAG [Fam3.1 aminoacylation ribozyme variant],self-aminoacylation,[1],2.21
same,self-aminoacylation,[3],3.03
AAGUUGGCUAACAGUCGCAAG [Fam3.1 aminoacylation ribozyme variant],self-aminoacylation,[1],2.05
same,self-aminoacylation,[2],2.26
same,self-aminoacylation,[3],2.15
AUCACCCUGGUCAUCGAGUGC [Fam2.1 aminoacylation ribozyme variant],self-aminoacylation,[4],2.56
same,self-aminoacylation,[2],2.4
same,self-aminoacylation,[5],3.26
same,self-aminoacylation,[3],4.47
AUCACCCUGGUCAUCGAGUUA [Fam2.1 aminoacylation ribozyme variant],self-aminoacylation,[4],2.83
same,self-aminoacylation,[2],2.62
same,self-aminoacylation,[5],2.93
same,self-aminoacylation,[3],4.31
AUUAACCUAGUUCAUCGGGUG [Fam2.2 aminoacylation ribozyme variant],self-aminoacylation,[4],2.71
same,self-aminoacylation,[2],2.54
same,self-aminoacylation,[5],2.14
same,self-aminoacylation,[3],12.3
AUUACACUGGUCAUCCAGUGA [Fam2.1 aminoacylation ribozyme variant],self-aminoacylation,[4],3.01
same,self-aminoacylation,[2],3.06
same,self-aminoacylation,[5],3.47
same,self-aminoacylation,[3],9.37
AUUACACUGGUCAUGGAGUGA [Fam2.1 aminoacylation ribozyme variant],self-aminoacylation,[6],2
same,self-aminoacylation,[4],2.48
same,self-aminoacylation,[2],2.06
same,self-aminoacylation,[5],2.63
same,self-aminoacylation,[3],2.95
AUUACCCUGCUCAUCGUGUGA [Fam2.1 aminoacylation ribozyme variant],self-aminoacylation,[4],2.85
same,self-aminoacylation,[2],3.19
same,self-aminoacylation,[5],2.7
same,self-aminoacylation,[3],14.7
AUUACCCUGGCCAACGAGUGA [Fam2.1 aminoacylation ribozyme variant],self-aminoacylation,[4],3.31
same,self-aminoacylation,[2],5.43
same,self-aminoacylation,[5],2.75
same,self-aminoacylation,[3],21
AUUACCCUGGUCAGCGAGUGG [Fam2.1 aminoacylation ribozyme variant],self-aminoacylation,[4],2.51
same,self-aminoacylation,[2],2.61
same,self-aminoacylation,[5],2.51
same,self-aminoacylation,[3],2.26
AUUACCCUGGUCAUCGCGUCA [Fam2.1 aminoacylation ribozyme variant],self-aminoacylation,[6],2.03
same,self-aminoacylation,[4],2.14
same,self-aminoacylation,[2],2.27
same,self-aminoacylation,[5],2.38
same,self-aminoacylation,[3],12.2
AUUACCCUGGUCAUCUCGUGA [Fam2.1 aminoacylation ribozyme variant],self-aminoacylation,[4],2.62
same,self-aminoacylation,[2],2.81
same,self-aminoacylation,[5],2.37
same,self-aminoacylation,[3],12.4
AUUACCCUGGUUAUCAAGUGA [Fam2.1 aminoacylation ribozyme variant],self-aminoacylation,[4],2.53
same,self-aminoacylation,[2],3.4
same,self-aminoacylation,[5],2.67
same,self-aminoacylation,[3],4.14
AUUACCGUGGUCAUCAAGUGA [Fam2.1 aminoacylation ribozyme variant],self-aminoacylation,[4],3.05
same,self-aminoacylation,[2],3.6
same,self-aminoacylation,[5],2.83
same,self-aminoacylation,[3],4.54
AUUACGCUCGUCAUCGAGUGA [Fam2.1 aminoacylation ribozyme variant],self-aminoacylation,[4],2.5
same,self-aminoacylation,[2],2.54
same,self-aminoacylation,[5],2.09
same,self-aminoacylation,[3],3.68
AUUAGCCUGCUCAUCGAGUGA [Fam2.1 aminoacylation ribozyme variant],self-aminoacylation,[4],2.92
same,self-aminoacylation,[2],4.65
same,self-aminoacylation,[5],3.42
same,self-aminoacylation,[3],12.2
AUUCACCUAGAUCAUAGGGUG [Fam2.2 aminoacylation ribozyme variant],self-aminoacylation,[6],2.07
same,self-aminoacylation,[4],4.64
same,self-aminoacylation,[2],2.9
same,self-aminoacylation,[5],3.97
same,self-aminoacylation,[3],13.6
AUUCACCUAGGACAACGGGUG [Fam2.2 aminoacylation ribozyme variant],self-aminoacylation,[4],3.72
same,self-aminoacylation,[2],2.92
same,self-aminoacylation,[5],3.6
same,self-aminoacylation,[3],25.7
AUUCACCUAGGUCAACUGGUG [Fam2.2 aminoacylation ribozyme variant],self-aminoacylation,[4],3.35
same,self-aminoacylation,[2],2.21
same,self-aminoacylation,[5],2.69
same,self-aminoacylation,[3],15.9
AUUCACCUAGGUCACCGGGUC [Fam2.2 aminoacylation ribozyme variant],self-aminoacylation,[6],2.18
AUUCACCUAGGUUAUCGGGGG [Fam2.2 aminoacylation ribozyme variant],self-aminoacylation,[6],2.01
same,self-aminoacylation,[4],2.29
same,self-aminoacylation,[2],2.02
same,self-aminoacylation,[3],6.72
AUUCACCUAGUUCAUCGGGUG [Fam2.2 aminoacylation ribozyme variant],self-aminoacylation,[6],2.15
same,self-aminoacylation,[4],2.74
same,self-aminoacylation,[2],2.49
same,self-aminoacylation,[5],2.49
same,self-aminoacylation,[3],12.9
AUUCACCUAUGUCAUUGGGUG [Fam2.2 aminoacylation ribozyme variant],self-aminoacylation,[4],2.34
same,self-aminoacylation,[2],2.13
same,self-aminoacylation,[5],2.03
same,self-aminoacylation,[3],9.21
AUUCACCUAUUUCAUCGGGUG [Fam2.2 aminoacylation ribozyme variant],self-aminoacylation,[6],2.02
same,self-aminoacylation,[4],3.49
same,self-aminoacylation,[2],3.17
same,self-aminoacylation,[5],2.93
same,self-aminoacylation,[3],8.43
AUUCACCUUGGUCAUCUGGUG [Fam2.2 aminoacylation ribozyme variant],self-aminoacylation,[6],2.16
same,self-aminoacylation,[4],3.3
same,self-aminoacylation,[2],2.75
same,self-aminoacylation,[5],2.82
same,self-aminoacylation,[3],17.9
AUUCACUUAGAUCAUCGGGUG [Fam2.2 aminoacylation ribozyme variant],self-aminoacylation,[4],2.57
same,self-aminoacylation,[2],2.82
same,self-aminoacylation,[5],2.14
same,self-aminoacylation,[3],10.8
AUUCACUUAGGUAAUCGGGUG [Fam2.2 aminoacylation ribozyme variant],self-aminoacylation,[4],3.33
same,self-aminoacylation,[2],2.72
same,self-aminoacylation,[5],3.11
same,self-aminoacylation,[3],19.6
AUUGCCCUGGUCAUCGAGUGC [Fam2.1 aminoacylation ribozyme variant],self-aminoacylation,[6],2.32
same,self-aminoacylation,[4],4.73
same,self-aminoacylation,[2],4.08
same,self-aminoacylation,[5],4.79
same,self-aminoacylation,[3],11.6
CAGUUUGCUAAUAGUCGCAAU [Fam3.1 aminoacylation ribozyme variant],self-aminoacylation,[1],2.06
same,self-aminoacylation,[3],2
CCACACAUCAAGCAAUCGGGC [Fam1B.1 aminoacylation ribozyme variant],self-aminoacylation,[1],2.01
same,self-aminoacylation,[2],2.1
CCACACCUCAAGCAAUCGGCC [Fam1B.1 aminoacylation ribozyme variant],self-aminoacylation,[6],2.42
same,self-aminoacylation,[2],2.61
CCACACUUCAAGCAAACGGGC [Fam1B.1 aminoacylation ribozyme variant],self-aminoacylation,[6],2.03
CCACACUUCAAGCAACCGCUC [Fam1B.1 aminoacylation ribozyme variant],self-aminoacylation,[6],2.09
same,self-aminoacylation,[3],8.07
CCACACUUCAAGCAACCGGUU [Fam1B.1 aminoacylation ribozyme variant],self-aminoacylation,[6],2.04
CCACACUUCAAGCAAUCGGCG [Fam1B.1 aminoacylation ribozyme variant],self-aminoacylation,[6],2.18
same,self-aminoacylation,[2],2.05
same,self-aminoacylation,[5],2.16
CCACACUUCAAGCCAUCCGUC [Fam1B.1 aminoacylation ribozyme variant],self-aminoacylation,[1],2.04
CCACACUUCACGCAAUCGCUC [Fam1B.1 aminoacylation ribozyme variant],self-aminoacylation,[6],2.19
CCACCCUUCAAGCAAUCGGCC [Fam1B.1 aminoacylation ribozyme variant],self-aminoacylation,[6],2.39
same,self-aminoacylation,[2],3.11
same,self-aminoacylation,[3],3.03
CCACCCUUCAAGCAUUCGGUC [Fam1B.1 aminoacylation ribozyme variant],self-aminoacylation,[6],2.56
CCCCACUUCAAACAAUCGGUC [Fam1B.1 aminoacylation ribozyme variant],self-aminoacylation,[6],2.15
same,self-aminoacylation,[4],2.83
same,self-aminoacylation,[2],61.2
same,self-aminoacylation,[3],140
CCCCACUUGAAGCAAUCGGUC [Fam1B.1 aminoacylation ribozyme variant],self-aminoacylation,[6],2.23
same,self-aminoacylation,[2],2.12
CCGCCCUUCAAGCAAUCGGUC [Fam1B.1 aminoacylation ribozyme variant],self-aminoacylation,[6],2.62
same,self-aminoacylation,[4],2.13
same,self-aminoacylation,[2],29.9
same,self-aminoacylation,[3],38.9
CUUACCGUGGUCAUCGAGUGA [Fam2.1 aminoacylation ribozyme variant],self-aminoacylation,[6],2.68
same,self-aminoacylation,[4],2.59
same,self-aminoacylation,[2],3.87
same,self-aminoacylation,[5],3.29
same,self-aminoacylation,[3],10.3
CUUACCUUGGUCAUCGAGUGA [Fam2.1 aminoacylation ribozyme variant],self-aminoacylation,[6],2.66
same,self-aminoacylation,[4],2.99
same,self-aminoacylation,[2],3.9
same,self-aminoacylation,[5],3.25
same,self-aminoacylation,[3],3.62
GCACACUUCAAACAAUCGGUC [Fam1B.1 aminoacylation ribozyme variant],self-aminoacylation,[6],2.19
same,self-aminoacylation,[4],2.99
same,self-aminoacylation,[2],59
same,self-aminoacylation,[5],2.13
same,self-aminoacylation,[3],92.2
